Results published in article PMC8791944, “GLUT3 inhibitor discovery through in silico ligand screening and in vivo validation in eukaryotic expression systems” (Scientific Reports, 2022).

What was measured:
[1] = substrate: OC[C@H]1OC(O)[C@H](O)[C@@H](O)[C@@H]1O; assay: cells, lysate or membranes; type: cell-based, human; conditions: other: wild-type GLUT3 in hxt^0 cells
Text: Hexose transporter deficient yeast strains (hxt^0) EBY.VW4000 for expression of GLUT5, EBY.S7 (carrying the fgy1 mutation) for expression of GLUT1-3, and SDY.022 (EBY.S7 Δerg4) for expression of GLUT4 cells, and corresponding plasmids[65],[66],[73] were from the labs of Drs.
The plasmids containing functional constructs of GLUT1-5 were transformed in the corresponding hxt^0 strains[65],[66],[73] (EBY.VW4000 for GLUT5S72Y, EBY.S7 for GLUT1, GLUT2∆loopS_Q455R, GLUT3 and GLUT3S66Y, and SDY.022 for GLUT4) and grown on 2% (w/v) agar plates of the respective media supplemented with 1% (w/v) maltose. An initial culture of ~ 10 ml was started with a few colonies and grown for 2–3 days if the media was SC-uracil with 1% (w/v) maltose (GLUT1, GLUT3, GLUT4) or 1–2 days if the media was YEP with 1% (w/v) maltose and 100 µg/ml geneticin G418 (GLUT2∆loopS_Q455R and GLUT5S72Y). […] Then, cells were transferred in the same media so that OD600nm ~ 0.5 and grown further for 1–2 days.
For transport activity assay, cells in the hexose media were centrifuged (1000×g, 5 min, room temperature), washed once with PBS buffer (10 mM Na2HPO4, 1.8 mM KH2PO4, 2.7 mM KCl, 137 mM NaCl, pH 7.4), and resuspended in PBS buffer at an OD600nm ~ 10; each assay contained 100 µl of this cell solution. […] The radioactivity was determined with a scintillation counter (Tri-carb 2900TR, Perkin Elmer, USA).

[2] = substrate: OC[C@H]1OC(O)[C@H](O)[C@@H](O)[C@@H]1O; assay: cells, lysate or membranes; conditions: other: GLUT3S66Y in hxt^0 cells

Protein | Km [1] | Km [2]
GLUT3 (Homo sapiens) (protein, expressed in transfected cells; host or cells: Saccharomyces cerevisiae hxt0 strain EBY.S7 (fgy1)) MGTQKVTPALIFAITVATIGSFQFGYNTGVINAPEKIIKEFINKTLTDKGNAPPSEVLLTSLWSLSVAIFSVGGMIGSFSVGLFVNRFGRRNSMLIVNLLAVTGGCFMGLCKVAKSVEMLILGRLVIGLFCGLCTGFVPMYIGEISPTALRGAFGTLNQLGIVVGILVAQIFGLEFILGSEELWPLLLGFTILPAILQSAALPFCPESPRFLLINRKEEENAKQILQRLWGTQDVSQDIQEMKDESARMSQEKQVTVLELFRVSSYRQPIIISIVLQLSQQLSGINAVFYYSTGIFKDAGVQEPIYATIGAGVVNTIFTVVSLFLVERAGRRTLHMIGLGGMAFCSTLMTVSLLLKDNYNGMSFVCIGAILVFVAFFEIGPGPIPWFIVAELFSQGPRPAAMAVAGCSNWTSNFLVGLLFPSAAHYLGAYVFIIFTGFLITFLAFTFFKVPETRGRTFEDITRAFEGQAHGADRSGKDGVMEMNSIEPAKETTTNV | 3110 ± 420 µM | 
GLUT3S66Y (Homo sapiens; S66Y) (protein) MGTQKVTPALIFAITVATIGSFQFGYNTGVINAPEKIIKEFINKTLTDKGNAPPSEVLLTSLWSLYVAIFSVGGMIGSFSVGLFVNRFGRRNSMLIVNLLAVTGGCFMGLCKVAKSVEMLILGRLVIGLFCGLCTGFVPMYIGEISPTALRGAFGTLNQLGIVVGILVAQIFGLEFILGSEELWPLLLGFTILPAILQSAALPFCPESPRFLLINRKEEENAKQILQRLWGTQDVSQDIQEMKDESARMSQEKQVTVLELFRVSSYRQPIIISIVLQLSQQLSGINAVFYYSTGIFKDAGVQEPIYATIGAGVVNTIFTVVSLFLVERAGRRTLHMIGLGGMAFCSTLMTVSLLLKDNYNGMSFVCIGAILVFVAFFEIGPGPIPWFIVAELFSQGPRPAAMAVAGCSNWTSNFLVGLLFPSAAHYLGAYVFIIFTGFLITFLAFTFFKVPETRGRTFEDITRAFEGQAHGADRSGKDGVMEMNSIEPAKETTTNV |  | 1420 ± 170 µM
